Measurements reported in paper PMC13064845 (2025).

Biological target: thrombospondin-1 (TSP1), immobilised in the Biacore analysis (UniProt P35441 19-1170)
Experiment: SPR

Sequence of thrombospondin-1 (TSP1), immobilised in the Biacore analysis (P35441 19-1170): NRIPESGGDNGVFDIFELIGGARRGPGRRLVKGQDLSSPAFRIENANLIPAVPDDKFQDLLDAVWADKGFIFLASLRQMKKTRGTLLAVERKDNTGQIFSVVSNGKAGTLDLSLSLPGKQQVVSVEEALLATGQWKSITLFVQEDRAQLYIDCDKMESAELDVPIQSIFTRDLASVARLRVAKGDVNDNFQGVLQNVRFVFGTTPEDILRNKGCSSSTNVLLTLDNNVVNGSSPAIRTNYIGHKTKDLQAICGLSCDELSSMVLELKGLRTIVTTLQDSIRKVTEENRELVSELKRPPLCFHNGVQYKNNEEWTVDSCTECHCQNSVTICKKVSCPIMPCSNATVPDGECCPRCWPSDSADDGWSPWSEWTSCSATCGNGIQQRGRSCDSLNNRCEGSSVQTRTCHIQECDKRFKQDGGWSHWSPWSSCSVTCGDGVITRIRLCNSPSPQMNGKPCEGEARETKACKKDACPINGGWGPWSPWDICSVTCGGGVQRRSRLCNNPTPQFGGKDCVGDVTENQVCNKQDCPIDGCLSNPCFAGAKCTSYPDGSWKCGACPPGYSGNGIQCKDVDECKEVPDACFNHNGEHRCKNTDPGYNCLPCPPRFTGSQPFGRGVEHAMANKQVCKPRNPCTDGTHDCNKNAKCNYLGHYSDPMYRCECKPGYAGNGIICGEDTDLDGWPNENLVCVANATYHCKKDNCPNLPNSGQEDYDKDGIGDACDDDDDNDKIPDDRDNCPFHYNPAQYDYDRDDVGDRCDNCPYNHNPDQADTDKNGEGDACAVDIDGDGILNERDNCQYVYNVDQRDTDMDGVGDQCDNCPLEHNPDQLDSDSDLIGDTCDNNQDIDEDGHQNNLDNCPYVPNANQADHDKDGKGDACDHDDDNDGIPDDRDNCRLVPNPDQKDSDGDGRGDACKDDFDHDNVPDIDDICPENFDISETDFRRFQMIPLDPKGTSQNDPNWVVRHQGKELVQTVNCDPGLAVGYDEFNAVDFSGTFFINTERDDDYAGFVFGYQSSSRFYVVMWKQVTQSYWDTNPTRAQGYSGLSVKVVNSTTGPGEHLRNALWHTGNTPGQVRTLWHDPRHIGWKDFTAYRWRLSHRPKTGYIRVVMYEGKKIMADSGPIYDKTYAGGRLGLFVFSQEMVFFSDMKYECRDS

B1: fibulin-7 (FBLN7), analyte of the Biacore analysis (natural protein)
chain: QSCLNKQQLLTTIRQLQQLLKGQETRFTEGIRNMKSRLAALQNTVNKMTPDAPPVSCPALEAPPDGKKFGSKYLVDHEVYFTCNPGFQLVGPSSVVCLANGSWTGEQPRCRDISECSSQPCHNGGTCVEGINHYRCICPPGKTGNRCQHQTQAAAPDGGEAGDPAFSRAPRCAQVEREQHCSCEAGFHLSSTTGGHSVCQDVNECEIYGQKGRPRLCMHACVNTPGSYRCTCPSGYRILADGKSCEDVDECAGPQHMCPRGTTCINTGGGFQCVNPECPEGSGNISYVKTSPFQCERNPCPMDSRPCRHLPKTISFHYLSLPSKLKTPITLFRMATASIPGHPGPNSLRFGIVGGNSRGHFVMQRSDRQTGELILTQTLEGPQTLEVDVDMSEYLERSFQANHVSKVTIFVSRYDF
  Kd: 0.0299 µM
